Source: patent publication US20250101133A1 (CENTRE NATIONAL DE LA RECHERCHE SCIENTIFIQUE, published 2025)

Columns and labels:
[1] = biological target: T1, recombinant human NEDP1 protein (human, UniProt Q96LD8 1-212); assay: SPR
T1 construct: also called deNEDDylating enzyme NEDP1; NEDP1 enzyme
T1 sequence (looked up): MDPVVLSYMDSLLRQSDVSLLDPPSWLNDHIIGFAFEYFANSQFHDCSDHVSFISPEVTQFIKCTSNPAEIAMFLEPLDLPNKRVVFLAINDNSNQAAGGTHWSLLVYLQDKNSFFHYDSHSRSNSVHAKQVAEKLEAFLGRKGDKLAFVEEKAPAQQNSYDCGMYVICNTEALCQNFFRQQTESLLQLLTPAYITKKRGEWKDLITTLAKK
Description: (§1) FIGS. 1A-1C: FIG. 1A Table showing the different Nanobodies isolated and their binding specificity towards the immunogen human NEDP1 and ULP-3, the C. elegans homologue of NEDP1 (−poor/no binding, + indicates binding affinity/specificity). FIG. 1B ELISA test, showing the binding of indicated Nanobodies (300 ng) against increasing amounts of coated recombinant human NEDP1. FIG. 1C Table showing the SPR (Surface Plasmon Resonance) analysis and binding affinities for indicated Nanobodies against human NEDP1.
(§2) Nbs affinities for NEDP1 were determined on a Biacore 2000 apparatus (Biacore AB, Uppsala, Sweden). Nanobodies (355 nM) were immobilized on anti-His6 antibody covalently immobilized on a carboxymethyl dextran sensorchip (CM5 Biacore AB) using the amine coupling method according to the manufacturer's instructions. The immobilization level was 500 resonance units (RU). Different concentrations of NEDP1 ranging from 0.75 to 200 nM in HEPES-buffered saline (0.01 M HEPES, pH 7.4, 0.15 M NaCl, 3 mM EDTA, 0.005% surfactant P20) were injected and exposed to the Nb. All sensorgrams were fitted by subtracting the signal from the reference flow cell and were treated using BIA evaluation version 3.2 software (Biacore AB).

[2] = biological target: T1, recombinant human NEDP1 protein; assay: SPR and ELISA
Description: as §1, §2

[3] = biological target: T2, endogenous NEDP1 in U2OS cell extracts (human, UniProt Q96LD8 1-212); assay: anti-Flag immunoprecipitation from U2OS cell extracts, western blot with anti-NEDP1
T2 construct: Untagged native protein, co-immunoprecipitated from cell lysate
T2 sequence (looked up): T1 sequence (looked up)
Description: FIGS. 4A-4B: FIG. 4A Extracts from empty pcDNA3 vector (vect.) or stably expressing Nanobody 2/Nanobody 9-Flag (AbR2DP12/AbR2DP46) U2OS cells were used for anti-Flag immunoprecipitations. Total cell extracts (input) and eluates were used for western blot analysis with the indicated antibodies. FIG. 4B U2OS cells described above were lysed in 2×SDS buffer and extracts were analysed by western blotting with the indicated antibodies.
U2OS cells either with empty pcDNA3 vector or stably expressing Nb2/Nb9-Flag constructs were lysed in 50 mM Tris-HCl, pH 7.4, 100 mM KCl, 1% NP-40, 2 mM EDTA, protease inhibitors (complete EDTA-free, Roche) for 15 min on ice. After centrifugation at 13000 rpm for 15 min at 4° C. extracts were used for immunoprecipitations overnight at 4° C. with 20 μl of pre-washed Flag beads. Next day beads were washed 3× with 500 μl of lysis buffer, resuspended in 50 μl of 2×SDS Laemmli buffer and boiled for 5 min. Eluates were analysed by western blotting.

B1: AbR2DP35, purified His6-tagged nanobody (VHH)
VHH: QVQLQESGGGLVQPGGSLTLSCAASGVMFSTGVMGWYRQAPGKQREAVAAITSGGLTTYKDSVKGRFAISRDNTKSTGYLQMNRLRPEDTAVYYCNVRGYWGQGTQVTVSS
notes: Llama VHH, purified as a His6-tagged protein; also called Nb7; Nanobody 7; not shown: His6 tag from vector pHEN6
[1]
  binding result: binds

B2: AbR2DP47, purified His6-tagged nanobody (VHH)
VHH: QVQLQESGGGLVEPGGSLRLSCAASGSISSINVMAWYRQAPGKQRESVAAISSFGITTYSETVKGRFTASRDNAKNTMYLQMNNLKPEDTAVYYCKGPNTDWGQGTQVTVSS
notes: Llama VHH, recloned into pHEN6 and purified from E. coli periplasm as a His6-tagged protein; also called Nb10; Nanobody 10; not shown: His6 tag from vector pHEN6
[2]
  binding result: binds

B3: AbR2DP12, purified His6-tagged nanobody (VHH)
VHH: QVQLQESGGGLVQAGGSLRLSCAASGSTSSFNVMAWYHQAPGKQRESVASITSGGITVYRDSVKGRFAISSDNAKNTVFLQMNSLKPEDTGVYYCGGVVDGRVYRGQGTQVTVSS
notes: Llama VHH, recloned into pHEN6 and purified from E. coli periplasm as a His6-tagged protein; also called Nb2; Nanobody 2; not shown: His6 tag from vector pHEN6
[2]
  binding result: binds

B4: Nb2-Flag (AbR2DP12 with Flag tag, stably expressed in U2OS cells) (VHH)
VHH: B3 VHH
notes: Expressed inside U2OS cells from a pcDNA3 construct; also called Nanobody 2-Flag; AbR2DP12-Flag; not shown: Flag tag
[3]
  binding result: binds

B5: AbR2DP46, purified His6-tagged nanobody (VHH)
VHH: QVQLQESGGGLVQAGGSLRLSCAASGSPFSIGTMAWYRQAPGNQRASVAAITRGGATTYANSVKGRFTVSRDNAKNTVYLQMNSLKPEDTAAYYCSVWAGDRAYWGQGTQVTVSS
notes: Llama VHH, recloned into pHEN6 and purified from E. coli periplasm as a His6-tagged protein; also called Nb9; Nanobody 9; not shown: His6 tag from vector pHEN6
[2]
  binding result: binds

B6: Nb9-Flag (AbR2DP46 with Flag tag, stably expressed in U2OS cells) (VHH)
VHH: B5 VHH
notes: Expressed inside U2OS cells from a pcDNA3 construct; also called Nanobody 9-Flag; AbR2DP46-Flag; not shown: Flag tag
[3]
  binding result: binds
